The values below come from patent publication US20150125450A1 (published 2015).

One assay deals with T1, murine IL-6 (murine, UniProt P08505 25-211).
T1 sequence (looked up): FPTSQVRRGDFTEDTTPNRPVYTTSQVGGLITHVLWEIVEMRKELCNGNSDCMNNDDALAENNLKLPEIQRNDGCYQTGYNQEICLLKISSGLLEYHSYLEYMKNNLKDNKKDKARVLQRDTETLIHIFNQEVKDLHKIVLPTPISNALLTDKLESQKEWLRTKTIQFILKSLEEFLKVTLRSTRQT
Nature of the assay: Western blotting. On the technique in general: In western blotting, separated proteins are transferred to a membrane and probed.

For another assay, the target named is human IL-6 (human, UniProt P05231 30-212). Nature of the assay: cell-based or functional assay.
The target in the next assay is human TNF-α (human, UniProt P01375 77-233). Put plainly: cell-based or functional assay.
human TNF-α, sequence (P01375 77-233 limits assumed): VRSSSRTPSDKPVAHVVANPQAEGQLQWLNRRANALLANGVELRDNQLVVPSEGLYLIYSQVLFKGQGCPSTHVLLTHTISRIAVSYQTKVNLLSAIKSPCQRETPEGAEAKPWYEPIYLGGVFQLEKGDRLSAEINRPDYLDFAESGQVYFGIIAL
Another assay has as its target T2, human TNF-β (human, UniProt P01374 35-205, limits assumed).
T2 sequence (looked up): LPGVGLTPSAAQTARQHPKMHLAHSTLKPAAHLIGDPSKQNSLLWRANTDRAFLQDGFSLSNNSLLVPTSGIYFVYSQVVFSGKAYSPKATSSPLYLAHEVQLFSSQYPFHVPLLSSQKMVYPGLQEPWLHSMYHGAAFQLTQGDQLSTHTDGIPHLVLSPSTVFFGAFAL
Put plainly: Western blotting, reducing conditions.

In the next assay the target is T3, murine TNF-α (murine, UniProt P06804 80-235).
T3 sequence (looked up): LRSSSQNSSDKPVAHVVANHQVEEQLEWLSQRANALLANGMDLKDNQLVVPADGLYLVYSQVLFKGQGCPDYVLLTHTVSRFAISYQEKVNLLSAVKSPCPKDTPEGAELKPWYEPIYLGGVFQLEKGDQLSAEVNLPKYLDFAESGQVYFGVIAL
Nature of the assay: Western blotting, reducing conditions.

Another assay concerns the target Cynomolgus monkey TNF-α (Cynomolgus monkey, UniProt P79337 77-233). Nature of the assay: ELISA. On the technique in general: In an ELISA, binding on a coated surface is turned into a signal by an enzyme label.

Cynomolgus monkey TNF-α, sequence (P79337 77-233 limits assumed): as the sequence (P01375 77-233 limits assumed) above, with L37V, R44T, T72N, R138L counted along it

B1: 2-3B2 mouse monoclonal antibody against human IL-6 (antibody, V domains shown)
VH: VKLQESGGGLVQPGGSRKLSCAASGFTFSRFGMHWVRQAPEKGLEWVAYIGRGSSTIYYADTVKGRFTISRDNPKNTLFLQMTSLRSEDTAMYYCARSNWDGAMDYWGQGTSVTVSS
VL: DIQLTQSPASLSASVGETVTITCRASGNIHNFLAWYQQKQGKSPQLLVYNAETLADGVPSRFSGSGSGTQYSLKINSLQPEDFGSYYCQHFWSTPWTFGGGTKLEIKR
notes: Murine IgG1/kappa hybridoma antibody; also called 2-3B2 anti-IL-6 antibody
For B1, in the assay with murine IL-6, the binding result is on record as “no binding”. Moreover, the “potency for inhibiting IL-6 induced phosphorylation of STAT3, relative to 4-4E6” value in the assay with human IL-6 is approximately 100 fold.

B2: 4C9 mouse anti-human TNF-α monoclonal antibody (antibody, mouse IgG1, V domains shown)
VH: VQLQESGPSLVKPSQTLSLTCSVTGDSITSGFWNWIRKFPGNKFEYMGYISYSGRTYYNPSLKSRLSITRDTSKNQFYLQLNSVTAEDTATYYCARDANYVLDYWGQGTTLTVSS
VL: DIQLTQSPSSLAMSVGQKVTMNCKSSQSLLNSSTQKNYLAWFQQKPGQSPKLLVYFASARESGVPDRFIGSGSGTDFTLTISSVQAEDLADYFCQQHYRTPFTFGSGTKLEIKR
notes: Murine IgG1/kappa; 4C9D11 and 4C9D11G11 are subclones of 4C9; also called 4C9D11; 4C9D11G11
Regarding B2, the “EC50, inhibition of TNF-α-induced cytotoxicity, L929 cells, MTS” value with human TNF-α is 0.0112 µg/mL. Moreover, the binding result with human TNF-β and with murine TNF-α was “no binding” in each case.

B3: chimeric 4C9 antibody (chimeric anti-TNF-α clone 6A9) (antibody, V domains shown)
VH: B2 VH
VL: B2 VL
notes: also called cIgG-anti-TNF-α
Consider B3, for which the binding result in the assay with Cynomolgus monkey TNF-α was “binds”.
